# B1: Sso6904 (natural protein)
# chain: MMAMSILEDPEFVKLRQFKGKVNFNLVMQILDEIELDLRGSDNIKTSIIYVYSSHLDEIRKNKEFYDMIAEILQRYYKKIGIENVNQLILTTIK
# What was measured:
# [1] = target: SmBiT-Snof10; assay: split reporter
# [2] = target: Snof3-LgBiT; assay: split reporter
# [3] = target: Snof3, yeast surface-displayed; assay: flow cytometry on cells
# [4] = target: Snof10, yeast surface-displayed; assay: flow cytometry on cells
binder,measurement,setting,value
B1,Kd,[1],20 nM
same,Kd,[2],20 nM
same,Kd,[3],11 nM
same,Kd,[4],28 nM

# Reference: article PMC9301641
